Measurements taken from US20200199204A1 (UNITED STATES OF AMERICA AS REPRESENTED BY THE SECRETARY …, published 2020).

Legend:
Assay in all cases: cell-based or functional assay
[1] = biological target: HIV-1 Env of CAP256.PI (HIV-1)
[2] = biological target: HIV-1 Env of CAP256.SU (HIV-1)
[3] = biological target: HIV-1 Env of 96ZM651.02 (HIV-1)
[4] = biological target: HIV-1 Env of CAP210.E8 (HIV-1)
[5] = biological target: HIV-1 Env of CAP244.D3 (HIV-1)
[6] = biological target: HIV-1 Env of CAP45.G3 (HIV-1)
[7] = biological target: HIV-1 Env of DU156.12 (HIV-1)
[8] = biological target: HIV-1 Env of DU172.17 (HIV-1)
[9] = biological target: HIV-1 Env of DU422.01 (HIV-1)
[10] = biological target: HIV-1 Env of ZM109.4 (HIV-1)
[11] = biological target: HIV-1 Env of ZM135.10a (HIV-1)
[12] = biological target: HIV-1 Env of ZM197.7 (HIV-1)
[13] = biological target: HIV-1 Env of ZM214.15 (HIV-1)
[14] = biological target: HIV-1 Env of ZM233.6 (HIV-1)
[15] = biological target: HIV-1 Env of ZM249.1 (HIV-1)
[16] = biological target: HIV-1 Env of ZM53.12 (HIV-1)
[17] = biological target: HIV-1 Env of 0260.v5.c36 (HIV-1)
[18] = biological target: HIV-1 Env of BG505.w6m (HIV-1)
[19] = biological target: HIV-1 Env of KER2008.12 (HIV-1)
[20] = biological target: HIV-1 Env of KER2018.11 (HIV-1)
[21] = biological target: HIV-1 Env of MB201 (HIV-1)
[22] = biological target: HIV-1 Env of MB539.2B7 (HIV-1)
[23] = biological target: HIV-1 Env of Q168.a2 (HIV-1)
[24] = biological target: HIV-1 Env of Q23.17 (HIV-1)
[25] = biological target: HIV-1 Env of Q259.d2.17 (HIV-1)
[26] = biological target: HIV-1 Env of Q461.e2 (HIV-1)
[27] = biological target: HIV-1 Env of Q769.d22 (HIV-1)
[28] = biological target: HIV-1 Env of Q842.d12 (HIV-1)
[29] = biological target: HIV-1 Env of RW020.2 (HIV-1)
[30] = biological target: HIV-1 Env of UG037.8 (HIV-1)
[31] = biological target: HIV-1 Env of 6535.3 (HIV-1)
[32] = biological target: HIV-1 Env of AC10.29 (HIV-1)
[33] = biological target: HIV-1 Env of CAAN.A2 (HIV-1)
[34] = biological target: HIV-1 Env of PVO.04 (HIV-1)
[35] = biological target: HIV-1 Env of QH0692.42 (HIV-1)
[36] = biological target: HIV-1 Env of REJO.67 (HIV-1)
[37] = biological target: HIV-1 Env of RHPA.7 (HIV-1)
[38] = biological target: HIV-1 Env of SC422.8 (HIV-1)
[39] = biological target: HIV-1 Env of THRO.18 (HIV-1)
[40] = biological target: HIV-1 Env of TRJO.58 (HIV-1)
[41] = biological target: HIV-1 Env of TRO.11 (HIV-1)
[42] = biological target: HIV-1 Env of WITO.33 (HIV-1)
[43] = biological target: HIV-1 Env of 191821.E6.1 (HIV-1)
[44] = biological target: HIV-1 Env of 3016.V5.c36 (HIV-1)
[45] = biological target: HIV-1 Env of 6405.v4.c34 (HIV-1)
[46] = biological target: HIV-1 Env of C1080.c3 (HIV-1)
[47] = biological target: HIV-1 Env of CM244.ec1 (HIV-1)
[48] = biological target: HIV-1 Env of CNE3 (HIV-1)
[49] = biological target: HIV-1 Env of TH976.17 (HIV-1)

B1: CAP256-VRC26.03 (antibody, V domains shown)
VH: EVQLVESGGGVVQPGKSLRLSCAASRFSFNRYGMHWVRQAPGKGLEWVAAISYDGTDKYHADKVWGRFTISRDNSKNTLYLQMNSLRAEDTALYYCAKDLREDECEEWWSDYYDFGKQLPCRKSRGVAGIFDGWGQGTMVTVSS
VL: QSVLTQPPSVSAAPGQKVTISCSGSSSNIGNNFVSWYQQRPGTAPKILIYENNKRPSETPDRFSGSKSGTSATLAITGLQTADEAEYYCATWSASLSSARVFGTGTRITVLG
neutralization IC50 [1]: > 50 µg/mL | neutralization IC50 [2]: 0.004 µg/mL | neutralization IC50 [3]: > 50 µg/mL | neutralization IC50 [4]: 0.011 µg/mL | neutralization IC50 [5]: > 50 µg/mL | neutralization IC50 [6]: 10.7 µg/mL | neutralization IC50 [7]: 0.117 µg/mL | neutralization IC50 [8]: > 50 µg/mL | neutralization IC50 [9]: 0.134 µg/mL | neutralization IC50 [10]: > 50 µg/mL | neutralization IC50 [11]: > 50 µg/mL | neutralization IC50 [12]: 0.16 µg/mL | neutralization IC50 [13]: 1.5 µg/mL | neutralization IC50 [14]: 0.032 µg/mL | neutralization IC50 [15]: 0.039 µg/mL | neutralization IC50 [16]: 0.008 µg/mL | neutralization IC50 [17]: > 50 µg/mL | neutralization IC50 [18]: 4.76 µg/mL | neutralization IC50 [19]: > 50 µg/mL | neutralization IC50 [20]: 0.003 µg/mL | neutralization IC50 [21]: > 50 µg/mL | neutralization IC50 [22]: > 50 µg/mL | neutralization IC50 [23]: > 50 µg/mL | neutralization IC50 [24]: > 50 µg/mL | neutralization IC50 [25]: 0.014 µg/mL | neutralization IC50 [26]: > 50 µg/mL | neutralization IC50 [27]: > 50 µg/mL | neutralization IC50 [28]: > 50 µg/mL | neutralization IC50 [29]: > 50 µg/mL | neutralization IC50 [30]: > 50 µg/mL | neutralization IC50 [31]: > 50 µg/mL | neutralization IC50 [32]: > 50 µg/mL | neutralization IC50 [33]: > 50 µg/mL | neutralization IC50 [34]: > 50 µg/mL | neutralization IC50 [35]: > 50 µg/mL | neutralization IC50 [36]: > 50 µg/mL | neutralization IC50 [37]: > 50 µg/mL | neutralization IC50 [38]: > 50 µg/mL | neutralization IC50 [39]: > 50 µg/mL | neutralization IC50 [40]: > 50 µg/mL | neutralization IC50 [41]: > 50 µg/mL | neutralization IC50 [42]: > 50 µg/mL | neutralization IC50 [43]: > 50 µg/mL | neutralization IC50 [44]: 0.118 µg/mL | neutralization IC50 [45]: > 50 µg/mL | neutralization IC50 [46]: 0.119 µg/mL | neutralization IC50 [47]: 0.003 µg/mL | neutralization IC50 [48]: > 50 µg/mL | neutralization IC50 [49]: > 50 µg/mL

B2: CAP256-VRC26.02 (antibody, V domains shown)
VH: EVQLVESGGGVVQPGRSLRLSCAASQFSFGNYGMHWVRQAPGKGLEWVAAISFAGTKTNYADSVKGRFTISRDNSKNTVYLQMNSLRAEDTALYFCAKDIREYECEYWTSDYYDFGRPQPCIDSRGVVGTFDVWGQGTMVTVSS
VL: QSVLTQPPSVSAAPGQKVTISCSGSNSNIGNKDVSWYQQIPATAPKLLIYENNKRPSGISDRFSGSKSGTSATLAITGLQTGDEADYYCATWDGRVSVIGTGTNVIVLG
neutralization IC50 [1]: > 50 µg/mL | neutralization IC50 [2]: 0.015 µg/mL | neutralization IC50 [3]: > 50 µg/mL | neutralization IC50 [4]: 0.062 µg/mL | neutralization IC50 [5]: > 50 µg/mL | neutralization IC50 [6]: > 50 µg/mL | neutralization IC50 [7]: > 50 µg/mL | neutralization IC50 [8]: > 50 µg/mL | neutralization IC50 [9]: > 50 µg/mL | neutralization IC50 [10]: > 50 µg/mL | neutralization IC50 [11]: > 50 µg/mL | neutralization IC50 [12]: 1.97 µg/mL | neutralization IC50 [13]: > 50 µg/mL | neutralization IC50 [14]: 0.701 µg/mL | neutralization IC50 [15]: > 50 µg/mL | neutralization IC50 [16]: 0.043 µg/mL | neutralization IC50 [17]: > 50 µg/mL | neutralization IC50 [18]: > 50 µg/mL | neutralization IC50 [19]: > 50 µg/mL | neutralization IC50 [20]: 0.18 µg/mL | neutralization IC50 [21]: > 50 µg/mL | neutralization IC50 [22]: > 50 µg/mL | neutralization IC50 [23]: > 50 µg/mL | neutralization IC50 [24]: > 50 µg/mL | neutralization IC50 [25]: > 50 µg/mL | neutralization IC50 [26]: > 50 µg/mL | neutralization IC50 [27]: > 50 µg/mL | neutralization IC50 [28]: > 50 µg/mL | neutralization IC50 [29]: > 50 µg/mL | neutralization IC50 [30]: > 50 µg/mL | neutralization IC50 [31]: > 50 µg/mL | neutralization IC50 [32]: > 50 µg/mL | neutralization IC50 [33]: > 50 µg/mL | neutralization IC50 [34]: 7.98 µg/mL | neutralization IC50 [35]: > 50 µg/mL | neutralization IC50 [36]: > 50 µg/mL | neutralization IC50 [37]: > 50 µg/mL | neutralization IC50 [38]: > 50 µg/mL | neutralization IC50 [39]: > 50 µg/mL | neutralization IC50 [40]: > 50 µg/mL | neutralization IC50 [41]: > 50 µg/mL | neutralization IC50 [42]: > 50 µg/mL | neutralization IC50 [43]: > 50 µg/mL | neutralization IC50 [44]: 0.057 µg/mL | neutralization IC50 [45]: > 50 µg/mL | neutralization IC50 [46]: > 50 µg/mL | neutralization IC50 [47]: 2.03 µg/mL | neutralization IC50 [48]: > 50 µg/mL | neutralization IC50 [49]: > 50 µg/mL

B3: CAP256-VRC26.05 (antibody, V domains shown)
VH: EVQLVESGGGVVQPGRSLRLSCAASHFSLSSYGMHWVRQAPGKGLEWVTGISFAGTKTYYGDSVRGRFTVSRDISKNTLFLQMNSLRPDDTAMYYCARDQRYYECEEWASDYYDFGREQPCLDPRGVVGIFDLWGQGTMVTVSS
VL: QSALTQPPSVSAAPGQKVTISCSGNIGNNYVSWYQQVPGTAPKLLIYENNKRPSGIPDRFSGSKSGTSATLVITGLQTGDEADFYCGTWGGSLRTGGVLGTGTRVTVLG
neutralization IC50 [1]: > 50 µg/mL | neutralization IC50 [2]: 0.007 µg/mL | neutralization IC50 [3]: > 50 µg/mL | neutralization IC50 [4]: 0.013 µg/mL | neutralization IC50 [5]: > 50 µg/mL | neutralization IC50 [6]: > 50 µg/mL | neutralization IC50 [7]: > 50 µg/mL | neutralization IC50 [8]: > 50 µg/mL | neutralization IC50 [9]: > 50 µg/mL | neutralization IC50 [10]: 26.5 µg/mL | neutralization IC50 [11]: > 50 µg/mL | neutralization IC50 [12]: 0.113 µg/mL | neutralization IC50 [13]: > 50 µg/mL | neutralization IC50 [14]: 0.003 µg/mL | neutralization IC50 [15]: > 50 µg/mL | neutralization IC50 [16]: 0.012 µg/mL | neutralization IC50 [17]: > 50 µg/mL | neutralization IC50 [18]: > 50 µg/mL | neutralization IC50 [19]: > 50 µg/mL | neutralization IC50 [20]: 0.012 µg/mL | neutralization IC50 [21]: > 50 µg/mL | neutralization IC50 [22]: > 50 µg/mL | neutralization IC50 [23]: > 50 µg/mL | neutralization IC50 [24]: > 50 µg/mL | neutralization IC50 [25]: 0.023 µg/mL | neutralization IC50 [26]: > 50 µg/mL | neutralization IC50 [27]: > 50 µg/mL | neutralization IC50 [28]: > 50 µg/mL | neutralization IC50 [29]: > 50 µg/mL | neutralization IC50 [30]: > 50 µg/mL | neutralization IC50 [31]: > 50 µg/mL | neutralization IC50 [32]: > 50 µg/mL | neutralization IC50 [33]: > 50 µg/mL | neutralization IC50 [34]: 44.4 µg/mL | neutralization IC50 [35]: > 50 µg/mL | neutralization IC50 [36]: > 50 µg/mL | neutralization IC50 [37]: > 50 µg/mL | neutralization IC50 [38]: > 50 µg/mL | neutralization IC50 [39]: > 50 µg/mL | neutralization IC50 [40]: > 50 µg/mL | neutralization IC50 [41]: > 50 µg/mL | neutralization IC50 [42]: > 50 µg/mL | neutralization IC50 [43]: > 50 µg/mL | neutralization IC50 [44]: 0.011 µg/mL | neutralization IC50 [45]: > 50 µg/mL | neutralization IC50 [46]: > 50 µg/mL | neutralization IC50 [47]: 0.517 µg/mL | neutralization IC50 [48]: > 50 µg/mL | neutralization IC50 [49]: > 50 µg/mL
